From patent US7122652B1, “Polymorphisms in the human hPXR gene and their use diagnostic and therapeutic applications” (priority 1999, dated 2006) come the findings set out here.

The assay concerns hPXR-dependent promoter-reporter gene plasmid pGL3(DR3)3TK(−105). Put plainly: hPXR-dependent promoter-reporter gene (luciferase) assay in co-transfected LS174T cells. The note with it: 42 hours; for hPXR-mediated transcriptional activation of the reporter gene upon treatment with rifampicin, relative to wild type hPXR: 10 μM rifampicin, FIG. 6A; for basal activity in the absence of added hPXR activators, relative to wild type hPXR: 0.1% DMSO only, FIG. 6B. The class given is cell-based, human. The method, then: FIG. 6: LS174T cells were co-transfected with the promoter artificial hPXR dependent reporter gene pGL3(DR3)3Tk(−105), pCMVβ and expression plasmids for hPXR variants, as indicated. Cells were treated for 42 hours with 10 μM rifampicin or 0.1% DMSO, then harvested and analyzed for luciferase and β-galactosidase activities. Data are shown as mean value ±SD. The activity of each hPXR variant in the presence of DMSO only was taken as 1 (A, B) or 100% (C). A) The effect of hPXR variants following 10 μM rifampicin. B) The effect of hPXR variants in the absence of exogenous inducers.
The functional consequences of the protein variants were investigated in LS174T cells. LS174T cells were first co-transfected with wild-type or variant hPXR expression plasmids together with the hPXR-dependent promoter-reporter gene plasmid pGL3(DR3)3TK(−105). […] The cells were treated with the xenobiotic rifampicin, a known activator of human hPXR (Blumberg, Genes Dev (1998), 3195–3205; Lehmann, J Clin Invest (1998), 1016–1023). […] In contrast, hPXR-mediated transcriptional activation was impaired in V140M, D163G and hPXR-2 variants. […] Changes in basal activity of variants are independent from activator-dependent activity.

B1: E18K: hPXR protein variant, amino acid substitution of E to K at position 18 (c. 52G > A, exon 2) (protein, UniProt O75469 1-434, looked up, variant E18K)
Nuclear receptor subfamily 1 …: MEVRPKESWNHADFVHCKDTESVPGKPSVNADEEVGGPQICRVCGDKATGYHFNVMTCEGCKGFFRRAMKRNARLRCPFRKGACEITRKTRRQCQACRLRKCLESGMKKEMIMSDEAVEERRALIKRKKSERTGTQPLGVQGLTEEQRMMIRELMDAQMKTFDTTFSHFKNFRLPGVLSSGCELPESLQAPSREEAAKWSQVRKDLCSLKVSLQLRGEDGSVWNYKPPADSGGKEIFSLLPHMADMSTYMFKGIISFAKVISYFRDLPIEDQISLLKGAAFELCQLRFNTVFNAETGTWECGRLSYCLEDTAGGFQQLLLEPMLKFHYMLKKLQLHEEEYVLMQAISLFSPDRPGVLQHRVVDQLQEQFAITLKSYIECNRPQPAHRFLFLKIMAMLTELRSINAQHTQRLLRIQDIHPFATPLMQELFGITGS
With B1, the “hPXR-mediated transcriptional activation of the reporter gene upon treatment with rifampicin, relative to wild type hPXR” value is given as “as efficiently as wild type hPXR” and the “basal activity in the absence of added hPXR activators, relative to wild type hPXR” value (from here on “basal activity … relative to wild type hPXR”) is “lower basal activity than wild type hPXR”.

B2: G36R: hPXR protein variant, amino acid substitution of G to R at position 36 (c. 106G > A, exon 2) (protein, UniProt O75469 1-434, looked up, variant G36R)
Nuclear receptor subfamily 1 …: MEVRPKESWNHADFVHCEDTESVPGKPSVNADEEVRGPQICRVCGDKATGYHFNVMTCEGCKGFFRRAMKRNARLRCPFRKGACEITRKTRRQCQACRLRKCLESGMKKEMIMSDEAVEERRALIKRKKSERTGTQPLGVQGLTEEQRMMIRELMDAQMKTFDTTFSHFKNFRLPGVLSSGCELPESLQAPSREEAAKWSQVRKDLCSLKVSLQLRGEDGSVWNYKPPADSGGKEIFSLLPHMADMSTYMFKGIISFAKVISYFRDLPIEDQISLLKGAAFELCQLRFNTVFNAETGTWECGRLSYCLEDTAGGFQQLLLEPMLKFHYMLKKLQLHEEEYVLMQAISLFSPDRPGVLQHRVVDQLQEQFAITLKSYIECNRPQPAHRFLFLKIMAMLTELRSINAQHTQRLLRIQDIHPFATPLMQELFGITGS
B2: the “hPXR-mediated transcriptional activation of the reporter gene upon treatment with rifampicin, relative to wild type hPXR” value is “as efficiently as wild type hPXR” and the “basal activity … relative to wild type hPXR” value is “lower basal activity than wild type hPXR”.

B3: V140M: hPXR protein variant, amino acid substitution of V to M at position 140 (c. 418G > A, exon 4) (protein, UniProt O75469 1-434, looked up, variant V140M)
Nuclear receptor subfamily 1 …: MEVRPKESWNHADFVHCEDTESVPGKPSVNADEEVGGPQICRVCGDKATGYHFNVMTCEGCKGFFRRAMKRNARLRCPFRKGACEITRKTRRQCQACRLRKCLESGMKKEMIMSDEAVEERRALIKRKKSERTGTQPLGMQGLTEEQRMMIRELMDAQMKTFDTTFSHFKNFRLPGVLSSGCELPESLQAPSREEAAKWSQVRKDLCSLKVSLQLRGEDGSVWNYKPPADSGGKEIFSLLPHMADMSTYMFKGIISFAKVISYFRDLPIEDQISLLKGAAFELCQLRFNTVFNAETGTWECGRLSYCLEDTAGGFQQLLLEPMLKFHYMLKKLQLHEEEYVLMQAISLFSPDRPGVLQHRVVDQLQEQFAITLKSYIECNRPQPAHRFLFLKIMAMLTELRSINAQHTQRLLRIQDIHPFATPLMQELFGITGS
For the molecule B3, the “hPXR-mediated transcriptional activation of the reporter gene upon treatment with rifampicin, relative to wild type hPXR” value was 50 % of wild type activity and the “basal activity … relative to wild type hPXR” value is given as 130 % of wild type.

B4: D163G: hPXR protein variant, amino acid substitution of D to G at position 163 (c. 488A > G, exon 4) (protein, UniProt O75469 1-434, looked up, variant D163G)
Nuclear receptor subfamily 1 …: MEVRPKESWNHADFVHCEDTESVPGKPSVNADEEVGGPQICRVCGDKATGYHFNVMTCEGCKGFFRRAMKRNARLRCPFRKGACEITRKTRRQCQACRLRKCLESGMKKEMIMSDEAVEERRALIKRKKSERTGTQPLGVQGLTEEQRMMIRELMDAQMKTFGTTFSHFKNFRLPGVLSSGCELPESLQAPSREEAAKWSQVRKDLCSLKVSLQLRGEDGSVWNYKPPADSGGKEIFSLLPHMADMSTYMFKGIISFAKVISYFRDLPIEDQISLLKGAAFELCQLRFNTVFNAETGTWECGRLSYCLEDTAGGFQQLLLEPMLKFHYMLKKLQLHEEEYVLMQAISLFSPDRPGVLQHRVVDQLQEQFAITLKSYIECNRPQPAHRFLFLKIMAMLTELRSINAQHTQRLLRIQDIHPFATPLMQELFGITGS
B4: the “hPXR-mediated transcriptional activation of the reporter gene upon treatment with rifampicin, relative to wild type hPXR” value was 50 % of wild type activity and the “basal activity … relative to wild type hPXR” value is listed as “approximately 10 % of wild type”.

B5: A370T: hPXR protein variant, amino acid substitution of A to T at position 370 (c. 1108G > A, exon 8) (protein, UniProt O75469 1-434, looked up, variant A370T)
Nuclear receptor subfamily 1 …: MEVRPKESWNHADFVHCEDTESVPGKPSVNADEEVGGPQICRVCGDKATGYHFNVMTCEGCKGFFRRAMKRNARLRCPFRKGACEITRKTRRQCQACRLRKCLESGMKKEMIMSDEAVEERRALIKRKKSERTGTQPLGVQGLTEEQRMMIRELMDAQMKTFDTTFSHFKNFRLPGVLSSGCELPESLQAPSREEAAKWSQVRKDLCSLKVSLQLRGEDGSVWNYKPPADSGGKEIFSLLPHMADMSTYMFKGIISFAKVISYFRDLPIEDQISLLKGAAFELCQLRFNTVFNAETGTWECGRLSYCLEDTAGGFQQLLLEPMLKFHYMLKKLQLHEEEYVLMQAISLFSPDRPGVLQHRVVDQLQEQFTITLKSYIECNRPQPAHRFLFLKIMAMLTELRSINAQHTQRLLRIQDIHPFATPLMQELFGITGS
For B5, the “hPXR-mediated transcriptional activation of the reporter gene upon treatment with rifampicin, relative to wild type hPXR” value was “slightly impaired transcriptional activation” and the “basal activity … relative to wild type hPXR” value is given as 207 % of wild type.

B6: P27S: hPXR protein variant, amino acid substitution of P to S at position 27 (c. 79C > T, exon 2) (protein, UniProt O75469 1-434, looked up, variant P27S)
Nuclear receptor subfamily 1 …: MEVRPKESWNHADFVHCEDTESVPGKSSVNADEEVGGPQICRVCGDKATGYHFNVMTCEGCKGFFRRAMKRNARLRCPFRKGACEITRKTRRQCQACRLRKCLESGMKKEMIMSDEAVEERRALIKRKKSERTGTQPLGVQGLTEEQRMMIRELMDAQMKTFDTTFSHFKNFRLPGVLSSGCELPESLQAPSREEAAKWSQVRKDLCSLKVSLQLRGEDGSVWNYKPPADSGGKEIFSLLPHMADMSTYMFKGIISFAKVISYFRDLPIEDQISLLKGAAFELCQLRFNTVFNAETGTWECGRLSYCLEDTAGGFQQLLLEPMLKFHYMLKKLQLHEEEYVLMQAISLFSPDRPGVLQHRVVDQLQEQFAITLKSYIECNRPQPAHRFLFLKIMAMLTELRSINAQHTQRLLRIQDIHPFATPLMQELFGITGS
As for B6, the “hPXR-mediated transcriptional activation of the reporter gene upon treatment with rifampicin, relative to wild type hPXR” value is given as “as efficiently as wild type hPXR” and the “basal activity … relative to wild type hPXR” value is reported as “lower basal activity than wild type hPXR”.
